The results in this text go back to publication PMC2696313.

This assay concerns the target Δ41-52 hPRL (human prolactin with residues 41-52 removed) (human) (UniProt P01236). The assay is described as follows: mass spectrometry.

Turning to “Δ41-52 hPRL (human prolactin with residues 41-52 removed) (from UniProt P01236 29-227) (ligand)”, the stoichiometry N (commonly a count of units in the complex or per binding partner) worked out at 2.
